Measured values published in IntAct's records for PubMed 8114715.
Blank lines part the entries; values can stand above or below the substance they belong to.

Assays:
lck_human LCK [1] = molecular target: lck_human LCK (UniProt P06239)
lck_human LCK [2] = molecular target: lck_human LCK (UniProt P06239); remark: listed apart in the source
lck_human LCK [3] = molecular target: lck_human LCK (UniProt P06239); remark: listed apart in the source

Sequence of lck_human LCK (P06239 whole entry, looked up): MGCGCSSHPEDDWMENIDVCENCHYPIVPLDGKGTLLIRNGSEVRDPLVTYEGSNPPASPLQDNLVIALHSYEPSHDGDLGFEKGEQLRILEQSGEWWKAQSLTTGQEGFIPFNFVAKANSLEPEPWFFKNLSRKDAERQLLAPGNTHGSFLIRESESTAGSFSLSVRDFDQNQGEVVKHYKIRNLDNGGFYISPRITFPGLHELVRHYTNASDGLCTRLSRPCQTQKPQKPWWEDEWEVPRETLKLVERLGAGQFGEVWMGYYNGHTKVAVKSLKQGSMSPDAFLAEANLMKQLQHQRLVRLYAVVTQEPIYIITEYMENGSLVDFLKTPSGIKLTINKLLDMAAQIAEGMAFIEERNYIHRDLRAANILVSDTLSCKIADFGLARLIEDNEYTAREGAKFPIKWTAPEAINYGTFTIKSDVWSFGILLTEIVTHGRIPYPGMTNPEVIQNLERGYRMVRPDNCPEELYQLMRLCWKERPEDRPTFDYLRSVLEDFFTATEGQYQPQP
Sequence of Tyrosine-protein phosphatase non-receptor type 6 (Homo sapiens), P29350 Y536F (P29350 whole entry Y536F): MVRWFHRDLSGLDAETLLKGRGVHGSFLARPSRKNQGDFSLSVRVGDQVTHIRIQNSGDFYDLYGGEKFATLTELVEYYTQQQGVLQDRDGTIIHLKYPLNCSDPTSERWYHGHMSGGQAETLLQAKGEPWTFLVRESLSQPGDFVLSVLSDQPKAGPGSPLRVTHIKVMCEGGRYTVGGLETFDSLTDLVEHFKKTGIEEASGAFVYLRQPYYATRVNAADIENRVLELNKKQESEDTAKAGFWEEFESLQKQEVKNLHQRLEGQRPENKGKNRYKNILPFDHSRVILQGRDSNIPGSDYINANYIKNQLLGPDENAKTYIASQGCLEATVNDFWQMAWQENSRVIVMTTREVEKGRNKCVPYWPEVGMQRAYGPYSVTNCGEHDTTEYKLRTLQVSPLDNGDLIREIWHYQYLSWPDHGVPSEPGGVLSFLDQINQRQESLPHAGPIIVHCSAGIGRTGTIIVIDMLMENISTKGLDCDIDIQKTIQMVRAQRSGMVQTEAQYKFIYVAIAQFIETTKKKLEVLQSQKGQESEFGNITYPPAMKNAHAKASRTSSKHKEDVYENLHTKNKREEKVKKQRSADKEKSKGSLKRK
Sequence of Tyrosine-protein phosphatase non-receptor type 6 (Homo sapiens), P29350 Y564F (P29350 whole entry Y564F): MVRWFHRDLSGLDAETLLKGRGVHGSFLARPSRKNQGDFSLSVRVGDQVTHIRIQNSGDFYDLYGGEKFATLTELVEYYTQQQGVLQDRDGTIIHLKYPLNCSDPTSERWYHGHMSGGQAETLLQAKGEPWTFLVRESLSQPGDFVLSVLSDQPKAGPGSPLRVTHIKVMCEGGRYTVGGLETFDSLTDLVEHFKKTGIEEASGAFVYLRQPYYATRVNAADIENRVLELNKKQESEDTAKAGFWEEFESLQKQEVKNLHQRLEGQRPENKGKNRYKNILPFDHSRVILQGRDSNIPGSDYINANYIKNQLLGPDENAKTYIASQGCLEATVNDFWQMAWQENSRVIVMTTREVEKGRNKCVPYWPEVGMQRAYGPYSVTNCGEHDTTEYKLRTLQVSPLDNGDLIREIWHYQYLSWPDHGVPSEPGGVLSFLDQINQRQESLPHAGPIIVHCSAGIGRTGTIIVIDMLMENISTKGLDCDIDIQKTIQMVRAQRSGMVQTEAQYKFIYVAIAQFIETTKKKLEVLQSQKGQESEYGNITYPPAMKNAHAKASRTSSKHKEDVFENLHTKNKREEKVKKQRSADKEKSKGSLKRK
Sequence of Tyrosine-protein phosphatase non-receptor type 6 (Homo sapiens), P29350 Y541F (P29350 whole entry Y541F): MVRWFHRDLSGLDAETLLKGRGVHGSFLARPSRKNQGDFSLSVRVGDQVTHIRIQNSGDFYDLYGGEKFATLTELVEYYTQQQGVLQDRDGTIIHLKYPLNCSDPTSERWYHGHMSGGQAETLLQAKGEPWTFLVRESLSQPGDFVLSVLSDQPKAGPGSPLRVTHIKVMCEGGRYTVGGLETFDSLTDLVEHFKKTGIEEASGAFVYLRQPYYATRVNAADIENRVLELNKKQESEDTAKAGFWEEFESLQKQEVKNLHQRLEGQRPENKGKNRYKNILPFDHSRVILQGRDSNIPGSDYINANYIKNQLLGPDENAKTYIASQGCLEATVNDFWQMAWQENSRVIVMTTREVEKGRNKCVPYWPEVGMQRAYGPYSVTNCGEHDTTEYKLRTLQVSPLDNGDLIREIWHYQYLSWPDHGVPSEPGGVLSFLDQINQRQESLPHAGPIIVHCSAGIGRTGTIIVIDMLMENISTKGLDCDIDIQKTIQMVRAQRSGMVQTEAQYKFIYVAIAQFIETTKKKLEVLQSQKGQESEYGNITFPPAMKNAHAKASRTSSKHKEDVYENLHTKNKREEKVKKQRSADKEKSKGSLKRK

- effect of a mutation on the interaction (lck_human LCK [1]): decreasing interaction
Substance: Tyrosine-protein phosphatase non-receptor type 6 (Homo sapiens), P29350 Y536F

- effect of a mutation on the interaction (lck_human LCK [2]): decreasing interaction
Substance: Tyrosine-protein phosphatase non-receptor type 6 (Homo sapiens), P29350 Y541F

- effect of a mutation on the interaction (lck_human LCK [3]): decreasing interaction
Substance: Tyrosine-protein phosphatase non-receptor type 6 (Homo sapiens), P29350 Y564F
